The target in one series is T1, vvD1/D12 (Vaccinia virus WR, UniProt P04298).
T1 construct: gene OPG113

Substrate in the series “purified protein”: Nc1ncnc2c1ncn2[C@@H]1O[C@H](COP(=O)(O)OP(=O)(O)OP(=O)(O)O)[C@@H](O)[C@H]1O
The series can be described thus: purified protein. The series is classed as biochemical, Trypanosoma brucei. The note with it: co-substrate 100 nM fully methylated cap 4 pRNA (p m6,2AmAmCm m3Um), 0.5 mM MgCl2, pH 8.5, 27 °C, labelled compound.

With `C[S+](CC[C@H](N)C(=O)O)C[C@H]1O[C@@H](n2cnc3c(N)ncnc32)[C@H](O)[C@@H]1O` (stereo partly drawn) [AdoMet], at vvD1/D12, the “cap methyltransferase assay on ppRNA substrates” value was “cap methyltransferase activity was compared on ppAmAmCmUm and unmodified ppRNAs”.

B1: TbCe1 (Trypanosoma brucei brucei TREU927) (protein)
chain: MSATDVASELRSGAPEYVPTFLRCKQSENVTAFESPVVFLMFGCRGAGKSTQSTLLSKTYNLLYLSSGDIYKSGKQPFVELRKILNEHFGDGKERVYNGVVLDRFIANSEFEAFYVQTALRSVGLPVPFVFMLAIDQGLAAKRAEERGDNKGGNQRWRAVEQKAQAITANTVYAPIQCLKTIRVESDMTIDDVFNEIKTTIANQLPPDLFNLQLPREARREVEGTVLVEDYELYMELANDVHTVVGNLRGRRDSAPLSNVGAHLDKEYFSFANKRLRSQLTTMHVTLKADGLRFLVMKHKTRGYIGFPSAFTHCYELNDLFEGVEMAPKPYTELKKWMNDKSCELPADFLLDTEVVVHEKKPTLYIIDFIYFWGLDGRRMQFEQRLKVLREYFGDMKPQGQVIAMKDYVPINKIRTLVEEMKRRTELPVDGLIFQHNGSYRFGSDKFLIKWKPVHLCTVDFRLANGRVENGVWTFDLFVTDDFIEENGFREVAYPGATALIPASVVEENGLQNGMIIEMALSEKESVKKTSPNAPSEKTRWTFRNARNDKPSPNKYSIVTRICELMHVDLDELVSLCEKVPFYRNV
notes: expressed as His-Smt3 fusion in E. coli; tag removed by Ulp1; glycerol gradient purified
Consider B1, for which, in the series “purified protein”, the Km came to 0.21 µM and the kcat was found to be 2.3 min⁻¹.

Usually Km stands for the concentration of substrate that gives half-maximal velocity. The term kcat denotes the number of substrate molecules converted per active site and unit of time at saturation.

The record behind these values is article PMC11417388, “Trypanosome mRNA recapping is triggered by hypermethylation originating from cap 4” (Nucleic Acids Research, 2024).
